The target in experiment [1] is T1, human LAMP1 at the cell surface (human, UniProt P11279 29-417).
T1 construct: native on tumour cells (PDX, Colo205, SW480, LS174T) or from the cloned CDS NM_005561.3 in HEK293 and HCT116; signal peptide 1-28 left out; also called huLAMP1; full length human LAMP1
T1 sequence: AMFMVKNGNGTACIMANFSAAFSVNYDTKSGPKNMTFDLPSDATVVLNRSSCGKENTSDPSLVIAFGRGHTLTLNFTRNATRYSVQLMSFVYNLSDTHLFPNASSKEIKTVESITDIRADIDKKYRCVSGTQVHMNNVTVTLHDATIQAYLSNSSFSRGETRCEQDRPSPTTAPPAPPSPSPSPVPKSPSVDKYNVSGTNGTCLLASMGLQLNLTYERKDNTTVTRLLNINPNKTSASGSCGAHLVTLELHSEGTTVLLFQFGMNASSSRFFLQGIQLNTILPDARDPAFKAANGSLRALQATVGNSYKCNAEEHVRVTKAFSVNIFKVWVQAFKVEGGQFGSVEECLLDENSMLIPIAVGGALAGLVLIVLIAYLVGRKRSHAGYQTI
The experiment in a line: flow cytometry, dissociated CR-IGR-034P colon PDX cells. On the procedure: Advanced human primary colon tumor CR-IGR-034P was obtained from Patient-derived xenograft in mice. Tumor CR-IGR-034P was enzymatically dissociated using collagenase Type IV (Invitrogen; #17104-019) and deoxyribonuclease I (Invitrogen; #18047-019) for 1 h at 4° C. Cell viability was estimated by Viacount application using Guava® easyCyte™ 8HT Flow Cytometry System. […] 100 μL/well of goat anti-mouse IgG conjugated with Alexa647 (Invitrogen; # A2135) or goat anti-human IgG conjugated with Alexa488 (Invitrogen; # A11013) was added for 45 min at 4° C. and washed three times with PBS 1% BSA. The antibody binding was evaluated after centrifugation and resuspension of cells by adding 200 μl/well PBS 1% BSA and read using Guava® easyCyte™ 8HT Flow Cytometry System. EC50 values were estimated using BIOST@T-SPEED software.
On the technique in general: A flow cytometer gives signals particle by particle.

The target in experiment [2] is T1, human LAMP1 at the cell surface. The experiment in a line: cell-based or functional assay.
The target in experiment [3] is T2, mLAMP1_L1_LAMP1_L234::histag (mouse/human hybrid).
T2 construct: also called Loop1: mLAMP1 Loop2-4: hLAMP1
T2 chain: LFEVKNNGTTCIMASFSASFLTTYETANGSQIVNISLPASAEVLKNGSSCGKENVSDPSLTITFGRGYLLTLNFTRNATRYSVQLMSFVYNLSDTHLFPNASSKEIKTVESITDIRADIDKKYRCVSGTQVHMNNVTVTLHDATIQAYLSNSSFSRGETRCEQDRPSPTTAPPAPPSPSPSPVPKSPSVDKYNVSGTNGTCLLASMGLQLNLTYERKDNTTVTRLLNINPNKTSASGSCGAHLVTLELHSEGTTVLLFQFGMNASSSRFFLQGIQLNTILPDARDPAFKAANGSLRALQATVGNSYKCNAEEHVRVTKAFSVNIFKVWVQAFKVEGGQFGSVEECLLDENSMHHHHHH
The experiment in a line: ELISA. On the technique in general: ELISA stands for enzyme-linked immunosorbent assay.

For experiment [4], the target named is T3, LAMP1::histag (human, UniProt P11279 29-382).
T3 construct: extracellular domain without signal peptide, C-terminal 6 His tag, made in HEK293 cells; also called recombinant human LAMP1; human LAMP1 (29-382)
T3 sequence: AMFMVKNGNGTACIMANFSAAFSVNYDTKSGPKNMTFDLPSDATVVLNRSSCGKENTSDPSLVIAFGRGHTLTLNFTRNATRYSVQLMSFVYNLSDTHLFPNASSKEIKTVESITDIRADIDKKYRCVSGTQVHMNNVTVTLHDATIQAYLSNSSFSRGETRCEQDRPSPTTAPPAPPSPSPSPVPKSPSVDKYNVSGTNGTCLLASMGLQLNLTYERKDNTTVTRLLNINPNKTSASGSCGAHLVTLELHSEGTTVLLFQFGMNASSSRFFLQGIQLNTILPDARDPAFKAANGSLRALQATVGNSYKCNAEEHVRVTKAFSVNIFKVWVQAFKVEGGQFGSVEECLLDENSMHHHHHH
The experiment in a line: ELISA.

The target in experiment [5] is T4, mLAMP1_L12_LAMP1_L34::histag (mouse/human hybrid).
T4 construct: mouse LAMP1 (25-189) and human LAMP1 (196-382), His tag; also called Loop1-2: mLAMP1 Loop3-4: hLAMP1
T4 chain: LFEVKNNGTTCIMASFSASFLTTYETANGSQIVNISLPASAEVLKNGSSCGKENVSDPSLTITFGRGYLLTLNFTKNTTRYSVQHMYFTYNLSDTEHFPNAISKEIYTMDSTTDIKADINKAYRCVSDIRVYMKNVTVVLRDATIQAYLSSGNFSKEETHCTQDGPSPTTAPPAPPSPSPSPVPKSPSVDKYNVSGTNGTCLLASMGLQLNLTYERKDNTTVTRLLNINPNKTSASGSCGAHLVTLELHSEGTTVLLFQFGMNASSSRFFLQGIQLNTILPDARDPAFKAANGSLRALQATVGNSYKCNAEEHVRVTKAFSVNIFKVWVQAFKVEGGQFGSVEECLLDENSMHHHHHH
The experiment in a line: ELISA.

The next experiment has as its target T5, LAMP1_mseq1_ΔGYQTI (mouse; human).
T5 construct: on cells; also called pXL6012
The experiment in a line: flow cytometry, transfected 293-F cells.

Experiment [6] concerns the target T3, LAMP1::histag. The experiment in a line: ELISA on recombinant human LAMP1.
Experiment [7] concerns the target T3, LAMP1::histag. The experiment in a line: ELISA on secreted LAMP1::histag.
The target in the next experiment is T6, hLAMP1_ΔGYQTI (human, UniProt P11279 29-412).
T6 construct: also called pXL5626
T6 sequence: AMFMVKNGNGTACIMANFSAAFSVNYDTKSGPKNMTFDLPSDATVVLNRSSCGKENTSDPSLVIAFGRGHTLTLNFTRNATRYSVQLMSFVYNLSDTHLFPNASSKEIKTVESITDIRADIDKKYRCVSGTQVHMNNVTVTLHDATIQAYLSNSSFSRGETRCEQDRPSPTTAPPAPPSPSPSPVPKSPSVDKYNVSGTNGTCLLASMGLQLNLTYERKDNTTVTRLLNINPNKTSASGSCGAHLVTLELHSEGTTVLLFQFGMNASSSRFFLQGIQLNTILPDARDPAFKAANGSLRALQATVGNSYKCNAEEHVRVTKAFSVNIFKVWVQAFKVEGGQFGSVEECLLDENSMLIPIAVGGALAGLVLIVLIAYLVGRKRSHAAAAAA
The experiment in a line: flow cytometry, transfected 293-F cells, experiment 1.

B1: MAb3 (antibody, V domains shown)
VH: QIQLVQSGPELKKPGETVKISCKASGYIFTNYGMNWVKQAPGKGLKWMGWINTYTGESRYADDFKGRFALSLETSASTAYLQINNLENEDMATYFCAREDYYGNSPWFFDVWGAGTTVTVSS
VL: DIQMTQTTSSLSASLGDRVTISCNASQGINKYLNWYQQKPDGTVKLLIYYTSTLHSGVPSRFSGSGSGTDYSLTINNLEPEDIATYYCQQYTKLPFTFGSGTKLEIK
notes: murine monoclonal IgG, kappa, from hybridoma; also called murine MAb3
For B1, the response in experiment [1] was half-maximal at 6 nM (EC50).

B2: huMAb1_1 (antibody, human IgG1, kappa)
heavy: not shown
light: DIQMTQSPSSLSASVGDRVTITCKASQDIDRYMAWYQDKPGKAPRLLIHDTSTLQSGVPSRFSGSGSGRDYTLTISNLEPEDFATYYCLQYDNLWTFGGGTKVEIKRTVAAPSVFIFPPSDEQLKSGTASVVCLLNNFYPREAKVQWKVDNALQSGNSQESVTEQDSKDSTYSLSSTLTLSKADYEKHKVYACEVTHQGLSSPVTKSFNRGEC
notes: humanized, VH1-huIgG1 and VL1-huCk
As to B2, in experiment [2], the “ADCP Mean EC50, HCT116 huLAMP1 clone 4, antigen density 20 000” value is 0.73 nM; the “ADCP Mean EC50, HCT116 huLAMP1 clone 5, antigen density 300 000” value was determined as 0.33 nM; the “ADCP Mean EC50, HCT116 huLAMP1 clone 8, antigen density 100 000” value was 0.43 nM; the “ADCP Mean EC50, HCT116 huLAMP1 clone 12, antigen density 2500” value worked out at 0.65 nM.

B3: MAb2 (antibody, mouse IgG1, kappa)
heavy: QVQLQQSAAELARPGASVKMSCKASGYTFTSYTMHWVKQRPGQGLEWIGYFNPSSGYPEYNQKFKDKTTLTADKSSNTAFIQLNSLTSEDSAVYYCSRGYYYGSRGYALDFWGQGASVTVSSAKTTPPSVYPLAPGSAAQTNSMVTLGCLVKGYFPEPVTVTWNSGSLSSGVHTFPAVLQSDLYTLSSSVTVPSSTWPSETVTCNVAHPASSTKVDKKIVPRDCGCKPCICTVPEVSSVFIFPPKPKDVLTITLTPKVTCVVVDISKDDPEVQFSWFVDDVEVHTAQTQPREEQFNSTFRSVSELPIMHQDWLNGKEFKCRVNSAAFPAPIEKTISKTKGRPKAPQVYTIPPPKEQMAKDKVSLTCMITDFFPEDITVEWQWNGQPAENYKNTQPIMDTDGSYFVYSKLNVQKSNWEAGNTFTCSVLHEGLHNHHTEKSLSHSPGK
light: NIVLTQSPVSLAVSLGQRATISCRASESVDINGNTFMHWYQQKPGQSPKLVIYAASNIESGVPARFSGSGSSTDFTFTIDPVEADDVATYYCQQNIEDPWTFGGGTKVEIKRADAAPTVSIFPPSSEQLTSGGASVVCFLNNFYPKDINVKWKIDGSERQNGVLNSWTDQDSKDSTYSMSSTLTLTKDEYERHNSYTCEATHKTSTSPIVKSFNRNEC
notes: murine monoclonal IgG, kappa, from hybridoma; also called murine MAb2
B3: the EC50 (commonly the concentration giving half of the maximal effect) in experiment [1] stood at 14 nM; with LAMP1::histag [4], 0.25 nM; with LAMP1::histag [6], 0.25 nM. The binding result in experiment [3] and in [5] was “no binding” in each case. For the same molecule, the mean fluorescence with LAMP1_mseq1_ΔGYQTI came to 105.

B4: MAb1 (antibody, mouse IgG2a, kappa)
heavy: QVQLQQSGAELVKPGASVKMSCKASGYIFTNYNIHWVKKSPGQGLEWIGAIYPGNGDAPYSQKFKDKATLTADKSSSTTYMQLSRLTSEDSAVYYCVRANWDVAFAYWGQGTLVSVSAAKTTAPSVYPLAPVCGDTTGSSVTLGCLVKGYFPEPVTLTWNSGSLSSGVHTFPAVLQSDLYTLSSSVTVTSSTWPSQSITCNVAHPASSTKVDKKIEPRGPTIKPCPPCKCPAPNLLGGPSVFIFPPKIKDVLMISLSPIVTCVVVDVSEDDPDVQISWFVNNVEVHTAQTQTHREDYNSTLRVVSALPIQHQDWMSGKEFKCKVNNKDLPAPIERTISKPKGSVRAPQVYVLPPPEEEMTKKQVTLTCMVTDFMPEDIYVEWTNNGKTELNYKNTEPVLDSDGSYFMYSKLRVEKKNWVERNSYSCSVVHEGLHNHHTTKSFSRTPGK
light: DIQMTQSPPSLSASLGGKVTITCKASQDIDRYMAWYQDKPGKGPRLLIHDTSTLQPGIPSRFSGSGSGRDYSFSISNLEPEDIATYYCLQYDNLWTFGGGTKLEIKRADAAPTVSIFPPSSEQLTSGGASVVCFLNNFYPKDINVKWKIDGSERQNGVLNSWTDQDSKDSTYSMSSTLTLTKDEYERHNSYTCEATHKTSTSPIVKSFNRNEC
notes: murine monoclonal IgG, kappa, from hybridoma; also called murine MAb1
For the molecule B4, the EC50 amounted to 0.16 nM with LAMP1::histag [7], 0.15 nM in experiment [3], 0.18 nM in the experiment with LAMP1::histag [4] and 0.18 nM with LAMP1::histag [6]. Besides, in [5], the binding result is “no binding”. The mean fluorescence with LAMP1_mseq1_ΔGYQTI is 1030; with hLAMP1_ΔGYQTI, 1750.
